From the RNAGym collection of RNA variant scans (doi:10.1073/pnas.2313332121)
Variants at the floor of the assay were thinned out.

B1: TPR 5TU (parent)
chain: GGAUCUUCUCGAUCUAACAAAAAAGACAAAUCUGCCACAAAGCUUGAGAGCAUCUUCGGAUGCAGAGGCGGCAGCCUUCGGUGGCGCGAUAGCGCCAACGUUCUCAACUAUGACACGCAAAACGCGUGCUCCGUUGAAUGGAGUUUAUCAUG

Variants of: B1
Test: polymerase ribozyme fitness, log enrichment relative to wild type (log ratio); higher = more active; in vitro selection for triplet polymerase activity
Outline: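 Mutant libraries of both subunits of a heterodimeric triplet polymerase ribozyme were PCR-built, transcribed, and selected once in triplicate, with frozen incubation at −7 °C and capture of gel-excised extended constructs on streptavidin beads before RT-PCR. Illumina sequencing of input and output libraries was filtered to genotypes with ≥10 input reads and ≥1 read per output. Fitness is the logarithm of genotype enrichment over wild-type enrichment, using inverse-variance-weighted replicate averages. The logarithm is base 2.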
For GGAUCGUCUCGAUCUAACAAAAAAGACAAAUCUGUCACAAAGCUUGAGAGCAUCUUCGGAUGCAGAGGCGGCAGACUUCGGUGGCGCGAUAGCGCCAGCGUUCUCAACUAUGACACGCAAUACGCGUGCUCCGUUGAAUGGAGUUUAUCAUG, the “polymerase ribozyme fitness (log ratio)” value was at most -4.2.
With GGAUCGUCUGGAUAUAACAAAAAAGACAAAUCUGCCACAAAGCUUGAGCGCAUCUUCGGAUGCAGAGGCGGCAGCCUUCGGUGGAGCGAUAGUGCCAACGUUCUCAACUAUGACAUGCAAAACGCGUGCUCCGUUGAAUGGAGUUUAUCAUG the “polymerase ribozyme fitness (log ratio)” value was at most -4.2.
In the case of GGAUCGUCUCGAUCUAACAAAAAAGACAAAUCUGCCACAAAGCUUGAGAGCAUCUUCGGAUGCAGAGGCGGCAGCCUUCGGUGGCGUGAUAGCGCCAACGUUCUCAACUAUGACACGCAAAACGCGUGCUUCGUUGAAUGGAGUUUAUCAUG, the “polymerase ribozyme fitness (log ratio)” value is reported as 0.928.
For GGAUCGUCUCGAUCUAACAAAAAAGACAAAUCUGCCACAAAGCUUGAGAGCAUCUUCGGAUGCAGAGGCGGCAGCCUUCGGUGGAGGGAUAGCGCCAUCGUUCUCCACUAUGACACGCAAAACGCGUGCUCCGUUGAAUGGAGUUUAACAUG, the “polymerase ribozyme fitness (log ratio)” value was at most -4.2.
For GGAUCGUCUCGAUCUAACAAAAAAGACAAAUCUGCCACAAAGCUUGAGAGCAUCUUCGGAUGCAGAGGCGGCAGCCUUCGGUGGCGGGAUAGCGCCAACGUUCUCAACUAUGACACGCAAAACGCGUGCUCCGUUGAAUGGAGUUUAUCAUG, the “polymerase ribozyme fitness (log ratio)” value was -3.6.
For GGAUCGUCUCGAUCUAACAAAAAAGACAAAUCUGCCACAAAGCUUGAGAGCAUCUUCGGAUGCAGAGGCGGCAGCCUUCGGUGGCGUGAUAGCGCCAACGUUCUCAACUAUGACACGCAAAACGCGUGCUCCGUUGAAUGGAGUUUAUCAUG, the “polymerase ribozyme fitness (log ratio)” value was -0.579.
For GGAUCGUCUCGAUCUAACAAAAAAGAUAAAUCUGCCACAAAGCUUGAGCGCAUCUUCGGAUGCAGAGGCGGCAGCCUUGGGUGGCGCGUUAGUGCCAACGUUCUCAACUAUGACACGCAAAACGCGUGCUCAGUUGAAUGGAGUUUAUCAUG, the “polymerase ribozyme fitness (log ratio)” value was at most -4.2.
For GGAUCGUCUCGAUCUAACAAAAAAGACAAAUCUGCCACAAAGCUUGAGAGCAUCUUCGGAUGCAGAGGCGGCAGCCUUCGGUGGAGCGAUAGCGCCAACGUUCUCAACUAUGACACGCAAAACGCGUGCUCCGUUGAAUGGAGUUUAUCAUG, the “polymerase ribozyme fitness (log ratio)” value was -1.09.
With GGAUCGUCUCGAUCUAACAAAAAAGACAAAUCUGCCACAAAGCUUGAGAGCAUCUUCGGAUGCAGAGGCGGCAGCCUUCGGUGGUGCGAUAGCGCCAACGUUCUCAACUAUGACACGCAAAACGCGUGCUCCGUUGAAUGGAGUUUAUCAUG the “polymerase ribozyme fitness (log ratio)” value was -0.35.
For GGAUCGUCUCGAUCUAACAAAAAAGACAAAUCUGCCACAAAGCUUGAGAGCAUCUUCGGAUGCAGAGGCGGCAGCCUUCGGUGGCGCGAUAGCGCCAACGUUCUCAACUAUGAAACGCAAAACGCGUGCUCCGUUGAAUGGAGUUUAUCAUG, the “polymerase ribozyme fitness (log ratio)” value was -3.22.
For GGAUCGUCUCGAUCUAACAAAAAAGACAAAUCUGCCACAAAGCUUGAGAGCAUCUUCGGAUGCAGAGGCGGCAGCCUUCGGUGGCGCGAUAGCGCUAACGUUCUCAACUAUGACACGCAAAACGCGUGCUCCGUUGAAUGGAGUUUAUCAUG, the “polymerase ribozyme fitness (log ratio)” value was -0.759.
In the case of GGAUCGUCUCGAUCUAACAAAAAAGACAAAUCUGCCACAAAGCUUGAGAGUAUCUUCGGAUGCAGAGGCGGCAGCCUUCGGUGACGCGAUAGCGCCAACGUUCUCAACUAUGACACGCAAAACGCGUGCUCCGUUGAAUGGAGUUGAUCAUG, the “polymerase ribozyme fitness (log ratio)” value is reported as -1.28.
In the case of GGAUCGUCUAGAUCUGACACAAAAGACAAAUCUGCCACAAAGCUUGAGAGCAAGUUCGGAUGCUGAGGCGGCAGCCUUCGGUGGUACGAUAGCGCCAACGUUCUCAACUAUGUCACGCAAAACGCGUGCUCCGUUGAAUGGAGUCUAUCAUG, the “polymerase ribozyme fitness (log ratio)” value is reported as at most -4.2.
With GGAUCGUCUCGAUCUAACAAAAAAGACAAAUCUGCCACAAAGCUUGAGAGCAUCUUCGGAUGUAGAGGCGGCAGCCUUCGGUGGCGCGCUAGCGCCAACGUUCUCAACUAUGACACGCAAAACGCGUGCUCCGUUGAAUGGAGUUUAUCAUG the “polymerase ribozyme fitness (log ratio)” value was -0.961.
With GGAUCGUCUCGAUCUAACAAAAAAGACAAAUCUGCCACAAAGCUUGAGAGCAUCUUAGGAUGCAGAGGCGGCAGCCUUCGGUGGAGCGAUAGCGUCAACGUUCUCAACUAUGACACGCAAAACGCGUGCUCCGUUGAAUGGAGUUUAUCAUG the “polymerase ribozyme fitness (log ratio)” value was -0.326.
In the case of GGAUCGUAUCGAUCUAACAAAAAAGACAAAUCUGCCACAAAGCUUGAAAGCAUCUGCGGAUGCAGAGGCGGCAGUCUUCCGUUGCGCGAUAUAGCCAAUUUUCUCAACUAUGACACGCAAAACGCGUGCUCCGUUGAAUGGAGUUUAUCAUG, the “polymerase ribozyme fitness (log ratio)” value is reported as at most -4.2.
In the case of GGAUCGUGUCGAUCUAACAAAAAAGACAAAUCUGCCACAAAGCUUGCGAGCAUCUUCGUAUGCAGAGGCGGCAGCCUUCGGUGGCGCGAUCGCGCGAACGUUCUCAACUAUGACACGCAAAACGCGUGCUCGAUUGAAUGGAGUUUAUCAUG, the “polymerase ribozyme fitness (log ratio)” value is reported as at most -4.2.
For GGAUCGUCUCGAUCUAACAAAAAAGACAAAUCUGCCACAAAGCUUGAGAGCAUCUUCGGAUGCAGAGGCGGCAGCCUUCGGUGGCGCGAUAGCGCCAAGGUUCUCAACUAUGACACGCAAAACGCGUGCUCCGUUGAAUGCAGUUUAUCAUG, the “polymerase ribozyme fitness (log ratio)” value was -2.05.
For GGAUCGUCUCGAUUUAACAAAAAAGACAAAUCUGCCACAAAGCUUGAGAGCAUCUUCGGAUGCAGAGGCGGCAGCCUUCGGUGGCGCGAUAGCGCCAACGUUCUCAACUAUGACACGCAAAACGCGUGCUCCGUUGAAUGGAGUUUAUCAUG, the “polymerase ribozyme fitness (log ratio)” value was -1.09.
